± gives the uncertainty stated by the source.
Assay: self-splicing fitness, log relative to wild type (ln ratio); higher = more splicing; Tetrahymena group I intron in knt gene, E. coli kanamycin selection, DiMSum; sequences stand for … in CUCUCU…GGAGGGAAAAGUUAUCAGGCAUGCACCUGGUAGCUAGUCUUUAAACCAAUAGAUUGCAUCGGUUUAAAAGGCAAGACCGUCAAAUUGCGGGAAAGGGGUCAACAGCCGUUCAGUACCAAGUCUCAGGGGAAACUUUGAGAUGGCCUUGCAAAGGGUAUGGUAAUAAGCUGACGGACAUGGUCCUAACCACGCAGCCAAGUCCUAAGUCAACAGAUCUUCUGUUGAUAUGGAUGCAGUUCACAGACUAAAUGUCGGUCGGGGAAGAUGUAUUCUUCUCAUAAGAUAUAGUCGGACCUCUCCUUAAUGGGAGCUAGCGGAUGAAGUGAUGCAACACUGGAGCCGCUGGGAACUAAUUUGUAUGCGAAAGUAUAUUGAUUAGUUUUGGAGUACUCGUGGUCG
In short: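 The eight P1ex-region nucleotides of an intron in the knt kanamycin-resistance gene on pET-22b(+) were all randomised and the library put into E. coli BL21(DE3). Six replicate transformations were grown overnight at 37°C or 30°C on LB agar with or without 25 μg/mL kanamycin, together with 100 μg/mL carbenicillin, 50 μM IPTG and 0.2% rhamnose. Colonies were pooled and amplicon-sequenced on an Illumina HiSeq 2500. Fitness from DiMSum is the error-weighted combination of wild-type-normalised replicate fold changes, kanamycin over none.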

| Sequence | self-splicing fitness (ln) (30 °C) | self-splicing fitness (ln) (37 °C) |
| --- | --- | --- |
| AGUUAGCAAUAUUACGGCGA | 0.115 ± 0.16 | 0.709 ± 0.16 |
| CCCAAGCAAUAUUACGACCG | -3.32 ± 0.24 | -3.03 ± 0.47 |
| GUCAAGCAAUAUUACGCAGU | -3.31 ± 0.33 | -1.16 ± 0.19 |
| UUGGAGCAAUAUUACGGGGG | -2.12 ± 0.39 | -2.14 ± 0.5 |
| CCGGAGCAAUAUUACGACGA | -0.828 ± 0.23 | -1.07 ± 0.24 |
| GUAGAGCAAUAUUACGGCGG | -1.86 ± 0.12 | -1.99 ± 0.18 |
| ACCGAGCAAUAUUACGGCUG | -1.28 ± 0.073 | -1.24 ± 0.1 |
| GACUAGCAAUAUUACGGGCU | -2.18 ± 0.15 | -1.64 ± 0.15 |
| CCUAAGCAAUAUUACGAGGG | -3.2 ± 0.17 | -3 ± 0.35 |
| ACGCAGCAAUAUUACGCAAU | -1.76 ± 0.11 | -1.85 ± 0.15 |
| GGGUAGCAAUAUUACGUAAG | -1.46 ± 0.14 | -0.429 ± 0.15 |
| CAUAAGCAAUAUUACGUAUA | -3.21 ± 0.12 | -2.32 ± 0.13 |
| CGUAAGCAAUAUUACGAUAA | -2.66 ± 0.23 | -1.86 ± 0.24 |
| GAACAGCAAUAUUACGUCGA | -0.66 ± 0.066 | -0.117 ± 0.076 |
| CUUUAGCAAUAUUACGGAAG | -3.17 ± 0.19 | -2.8 ± 0.23 |
| AAUUAGCAAUAUUACGAUCU | 0.226 ± 0.09 | 0.704 ± 0.11 |
| GUUGAGCAAUAUUACGGAGC | -1.01 ± 0.2 | -2.82 ± 0.3 |
| GGAUAGCAAUAUUACGUGCA | -1.3 ± 0.11 | 0.203 ± 0.12 |
| AUGCAGCAAUAUUACGUGCU | -2.52 ± 0.1 | -1.9 ± 0.098 |
| ACCUAGCAAUAUUACGACCA | -1.25 ± 0.16 | 0.323 ± 0.17 |
| UGCCAGCAAUAUUACGACCU | -2.35 ± 0.19 | -1.34 ± 0.17 |
| CGCUAGCAAUAUUACGACCU | -1.72 ± 0.19 | -1.62 ± 0.18 |
| CAGAAGCAAUAUUACGUCCC | -2.92 ± 0.3 | -1.49 ± 0.28 |
| UGUUAGCAAUAUUACGCUAU | -3.53 ± 0.49 | -1.29 ± 0.32 |

| Sequence | self-splicing fitness (ln) (30 °C) | self-splicing fitness (ln) (37 °C) |
| --- | --- | --- |
| AAGCAGCAAUAUUACGCCGG | -1.52 ± 0.11 | -0.994 ± 0.17 |
| ACCUAGCAAUAUUACGUUCC | -1.5 ± 0.086 | -0.914 ± 0.12 |
| AUUAAGCAAUAUUACGUGUA | -2.57 ± 0.14 | -1.66 ± 0.13 |
| AUCGAGCAAUAUUACGGGAG | -3.52 ± 0.25 | -2.5 ± 0.29 |
| UUAUAGCAAUAUUACGUUAG | -1.1 ± 0.12 | -0.717 ± 0.14 |
| GUCGAGCAAUAUUACGUGAG | -0.54 ± 0.076 | -0.266 ± 0.096 |
| AGGUAGCAAUAUUACGAUCG | -0.106 ± 0.015 | 0.121 ± 0.035 |
| GCUUAGCAAUAUUACGGCAU | -1.79 ± 0.17 | -1.61 ± 0.2 |
| CAAUAGCAAUAUUACGCGGG | -3.11 ± 0.16 | -1.75 ± 0.12 |
| CACAAGCAAUAUUACGCGCG | -0.772 ± 0.066 | -0.607 ± 0.071 |
| GAGAAGCAAUAUUACGUAGG | -3.2 ± 0.23 | -0.924 ± 0.15 |
| CAUAAGCAAUAUUACGUUUC | -3.35 ± 0.21 | -2.26 ± 0.2 |
| UGUCAGCAAUAUUACGCGGG | -3.8 ± 0.3 | -1.73 ± 0.26 |
| GAAUAGCAAUAUUACGUAGG | -3.4 ± 0.15 | -2.68 ± 0.2 |
| GCGGAGCAAUAUUACGAGUG | -2.86 ± 0.34 | -2.71 ± 0.48 |
| UCAAAGCAAUAUUACGGAAA | -2.64 ± 0.41 | -1.15 ± 0.19 |
| AGACAGCAAUAUUACGUGAC | -2.89 ± 0.15 | -1.42 ± 0.13 |
| UUUGAGCAAUAUUACGCAAG | -3.09 ± 0.34 | -1.51 ± 0.23 |
| CGAGAGCAAUAUUACGUGCA | -3.22 ± 0.23 | -3.2 ± 0.43 |
| GACAAGCAAUAUUACGACGC | 0.305 ± 0.1 | 0.643 ± 0.13 |
| AACUAGCAAUAUUACGCGUC | -1.95 ± 0.12 | -1.65 ± 0.14 |
| UCACAGCAAUAUUACGCACG | -1.22 ± 0.091 | -0.319 ± 0.14 |
| AUAGAGCAAUAUUACGACUG | -2.11 ± 0.13 | -0.786 ± 0.18 |
| UUCUAGCAAUAUUACGACAA | -0.37 ± 0.12 | -0.0185 ± 0.17 |

| Sequence | self-splicing fitness (ln) (30 °C) | self-splicing fitness (ln) (37 °C) |
| --- | --- | --- |
| GCCUAGCAAUAUUACGAUGA | -2.48 ± 0.16 | -1.4 ± 0.14 |
| CUUUAGCAAUAUUACGUGAU | -2.8 ± 0.14 | -1.05 ± 0.15 |
| AGGGAGCAAUAUUACGAGUA | -2.7 ± 0.31 | -1.76 ± 0.2 |
| AAAGAGCAAUAUUACGGCUU | -1.05 ± 0.11 | -0.397 ± 0.14 |
| GUUAAGCAAUAUUACGUUAC | -2.36 ± 0.19 | -1.33 ± 0.15 |
| GUUGAGCAAUAUUACGGAAC | -1.6 ± 0.43 |  |
| GAGAAGCAAUAUUACGAGGC | -3.35 ± 0.21 | -1.78 ± 0.17 |
| AUAUAGCAAUAUUACGCCUG | -2.24 ± 0.23 | -1.6 ± 0.24 |
| CGUCAGCAAUAUUACGUGUU | -3.17 ± 0.11 | -0.86 ± 0.099 |
| GGAUAGCAAUAUUACGAGAG | -1.8 ± 0.23 | -3.09 ± 0.47 |
| CGAGAGCAAUAUUACGAUGU | -3.97 ± 0.25 | -1.83 ± 0.19 |
| CGGUAGCAAUAUUACGAAAA | -2.62 ± 0.35 | -2.77 ± 0.39 |
| GCAAAGCAAUAUUACGACUU | -0.0792 ± 0.067 | -0.0895 ± 0.087 |
| GUGUAGCAAUAUUACGUGCU | -1.44 ± 0.11 | -1.09 ± 0.13 |
| UAUCAGCAAUAUUACGGUAG | -1.26 ± 0.083 | 0.0233 ± 0.087 |
| AAAUAGCAAUAUUACGACGG | -0.995 ± 0.1 | -0.783 ± 0.16 |
| UCAGAGCAAUAUUACGGUAU | -2.79 ± 0.2 | -3.2 ± 0.44 |
| UUGUAGCAAUAUUACGUCAC | -2.56 ± 0.39 |  |
| ACAGAGCAAUAUUACGCUAC | -3.21 ± 0.43 |  |
| AUUCAGCAAUAUUACGGGAU | -4.6 ± 0.27 | -2.32 ± 0.2 |
| AUUCAGCAAUAUUACGCUAG | -1.56 ± 0.13 | -0.152 ± 0.14 |
| AACAAGCAAUAUUACGCGCC | -0.296 ± 0.15 | -0.317 ± 0.18 |
| AGGAAGCAAUAUUACGCGCG | -0.598 ± 0.21 | -0.0648 ± 0.26 |
| AAAUAGCAAUAUUACGUUUG | -2.04 ± 0.1 | -1.49 ± 0.11 |

| Sequence | self-splicing fitness (ln) (30 °C) | self-splicing fitness (ln) (37 °C) |
| --- | --- | --- |
| AGGGAGCAAUAUUACGUGCU | -3.8 ± 0.3 | -1.92 ± 0.25 |
| CGGCAGCAAUAUUACGGAGG | -1.2 ± 0.086 | -0.0971 ± 0.11 |
| GUAGAGCAAUAUUACGAAAU | -1 ± 0.15 | -1.21 ± 0.17 |
| AGCGAGCAAUAUUACGUCGG | -3.45 ± 0.32 | -2.08 ± 0.25 |
| CAAAAGCAAUAUUACGAUCA | -1.42 ± 0.12 | -1.25 ± 0.12 |
| UGUCAGCAAUAUUACGUCAA | -0.787 ± 0.077 | -0.0175 ± 0.076 |
| UGCCAGCAAUAUUACGAAAU | -2.86 ± 0.2 | -1.81 ± 0.17 |
| CAGGAGCAAUAUUACGAACG | -0.795 ± 0.11 | -0.844 ± 0.13 |
| GUCCAGCAAUAUUACGCGCC | -1.29 ± 0.11 | -0.848 ± 0.14 |
| CUAAAGCAAUAUUACGAGGC | -3.6 ± 0.16 | -1.92 ± 0.16 |
| AGUGAGCAAUAUUACGUAUC | -3.05 ± 0.34 |  |
| UAGGAGCAAUAUUACGGCUG | -0.891 ± 0.16 | 0.65 ± 0.2 |
| UAGAAGCAAUAUUACGCGAC | -3.67 ± 0.32 | -2.08 ± 0.33 |
| CAGGAGCAAUAUUACGCCGU | -4.09 ± 0.31 | -2.29 ± 0.29 |
| CCGAAGCAAUAUUACGACCG | -0.936 ± 0.13 | -0.0137 ± 0.17 |
| CGAGAGCAAUAUUACGUACA | -1.64 ± 0.27 | -1.71 ± 0.42 |
| AGCAAGCAAUAUUACGGAAC | -3.49 ± 0.43 | -2.04 ± 0.18 |
| CUGAAGCAAUAUUACGUAAG | -0.797 ± 0.08 | 0.0174 ± 0.086 |
| CUCGAGCAAUAUUACGCGGC | -3.35 ± 0.47 | -3.16 ± 0.4 |
| CUGUAGCAAUAUUACGCGUU | -4.19 ± 0.3 | -2.26 ± 0.18 |
| CUGCAGCAAUAUUACGCUGG | -3.66 ± 0.23 | -2.64 ± 0.25 |
| CGUUAGCAAUAUUACGUCCA | -2.04 ± 0.41 | -1.13 ± 0.48 |
| CGUUAGCAAUAUUACGCCCG | -0.798 ± 0.29 |  |
| UUAGAGCAAUAUUACGACAA | 0.166 ± 0.062 | 0.493 ± 0.09 |

— the supplement of paper PMC7877785
